Results on two molecules are retold here after publication PMC10873595, “Filament structure and subcellular organization of the bacterial intermediate filament–like protein crescentin” (Proceedings of the National Academy of Sciences of the …, 2024).

The target in experiment [1] is T1, CreS-His (full-length CreS followed by GSHHHHHH) (Caulobacter crescentus (vibrioides) …).
T1 chain: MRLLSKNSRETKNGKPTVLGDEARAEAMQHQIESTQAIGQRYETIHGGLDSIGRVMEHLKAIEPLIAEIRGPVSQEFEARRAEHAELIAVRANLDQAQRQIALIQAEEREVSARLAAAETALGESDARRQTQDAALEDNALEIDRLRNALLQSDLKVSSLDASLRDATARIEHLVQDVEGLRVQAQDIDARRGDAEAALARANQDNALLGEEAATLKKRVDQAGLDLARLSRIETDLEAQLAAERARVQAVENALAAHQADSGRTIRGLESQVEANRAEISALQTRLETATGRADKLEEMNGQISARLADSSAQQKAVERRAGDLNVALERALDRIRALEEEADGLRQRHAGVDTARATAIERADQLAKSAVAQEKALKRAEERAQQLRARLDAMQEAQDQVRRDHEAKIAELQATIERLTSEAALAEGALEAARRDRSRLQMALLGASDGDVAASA

For experiment [2], the target named is T1, CreS-His (full-length CreS followed by …). As to the kind of experiment: far-Western, overlay or dot blot; cleared lysates of E. coli C41 (DE3) expressing CreS-His variants resolved by SDS-PAGE, blotted, probed with NB13 (7 µg/mL) then α-HA-peroxidase. The conditions noted are these: one partner purified.

Where two headings read alike, the source gives them in different places.

B1: Megabody MB13 (NB13, YgjK) (VHH)
VHH: AHNTESGEMLFTVKKDSLRLSCASSRSIDGINIMRWYRQAPGKQRGMVAVVTGWGSTNYVDSVKGRFIISRDSAKDTVYLQMNNLKPEDTAVYSCNAIYRGSEYWGQGTQVTVSS
In the case of B1, the binding result in experiment [1] is reported as “binds”.

B2: nanobody 13 (NB13) (VHH)
VHH: QVQLQESGGGLVQTGGSLRLSCASSRSIDGINIMRWYRQAPGKQRGMVAVVTGWGSTNYVDSVKGRFIISRDSAKDTVYLQMNNLKPEDTAVYSCNAIYRGSEYWGQGTQVTVSS
notes: camelid nanobody raised against purified CreSwt; also called CreS-specific nanobody; clone No. 13; source: E. coli WK6, periplasmic extract, purified (HisTrap); not shown: HA, C-terminal, kept
In the case of B2, the binding result in experiment [2] was “binds”.
